The supplement of paper PMC7877785
± gives the uncertainty stated by the source.

Test: self-splicing fitness, log relative to wild type (ln ratio); higher = more splicing; Tetrahymena group I intron in knt gene, E. coli kanamycin selection, DiMSum; sequences stand for … in CUCUCU…GGAGGGAAAAGUUAUCAGGCAUGCACCUGGUAGCUAGUCUUUAAACCAAUAGAUUGCAUCGGUUUAAAAGGCAAGACCGUCAAAUUGCGGGAAAGGGGUCAACAGCCGUUCAGUACCAAGUCUCAGGGGAAACUUUGAGAUGGCCUUGCAAAGGGUAUGGUAAUAAGCUGACGGACAUGGUCCUAACCACGCAGCCAAGUCCUAAGUCAACAGAUCUUCUGUUGAUAUGGAUGCAGUUCACAGACUAAAUGUCGGUCGGGGAAGAUGUAUUCUUCUCAUAAGAUAUAGUCGGACCUCUCCUUAAUGGGAGCUAGCGGAUGAAGUGAUGCAACACUGGAGCCGCUGGGAACUAAUUUGUAUGCGAAAGUAUAUUGAUUAGUUUUGGAGUACUCGUGGUCG
In short: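 Six replicate transformations of E. coli BL21(DE3) with a pET-22b(+) library were grown overnight at 37°C or 30°C. The library randomised all eight P1ex-region intron nucleotides, the intron lying in the knt kanamycin-resistance gene, and plates were LB agar with or without 25 μg/mL kanamycin plus 100 μg/mL carbenicillin, 50 μM IPTG and 0.2% rhamnose. Pooled colonies were amplicon-sequenced on an Illumina HiSeq 2500, and fitness is the DiMSum error-weighted combination of wild-type-normalised replicate fold changes, kanamycin versus none.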

Sequence | self-splicing fitness (ln) (30 °C) | self-splicing fitness (ln) (37 °C)
GCAUAGCAAUAUUACGUAGU | -2.22 ± 0.15 | -1.51 ± 0.16
CUCUAGCAAUAUUACGAAGU | -3.44 ± 0.21 | -4.77 ± 0.23
GUAGAGCAAUAUUACGCUAA | -0.515 ± 0.07 | -0.264 ± 0.089
UCUGAGCAAUAUUACGUCAG | -1.48 ± 0.096 | -0.513 ± 0.11
CGUAAGCAAUAUUACGUCAG | -1.56 ± 0.11 | 0.0936 ± 0.11
GAUUAGCAAUAUUACGUAGG | -3.05 ± 0.16 | -1.48 ± 0.15
UGCUAGCAAUAUUACGAAUG | -0.8 ± 0.1 | 0.288 ± 0.16
ACCAAGCAAUAUUACGAGUG | -2.09 ± 0.052 | -1.14 ± 0.062
UUUCAGCAAUAUUACGACGU | -1.71 ± 0.17 | -0.698 ± 0.18
CGCGAGCAAUAUUACGGGUG | -2.14 ± 0.077 | -1.68 ± 0.1
AGCGAGCAAUAUUACGGGGA | -2.64 ± 0.35 | -1.22 ± 0.22
UCCGAGCAAUAUUACGCGGA | -2.27 ± 0.3 | –
CGACAGCAAUAUUACGUAUC | – | -1.59 ± 0.19
AGGCAGCAAUAUUACGAUUC | -1.71 ± 0.13 | -0.305 ± 0.16
CAUUAGCAAUAUUACGGACG | -0.114 ± 0.086 | 0.364 ± 0.11
GCAAAGCAAUAUUACGAGUC | -1.41 ± 0.14 | -2.6 ± 0.19
AGAUAGCAAUAUUACGCGGC | -3.16 ± 0.22 | -3.59 ± 0.42
GCUCAGCAAUAUUACGAGAA | -0.468 ± 0.12 | 0.0758 ± 0.099
CCGAAGCAAUAUUACGUGAA | -3.64 ± 0.16 | -2.82 ± 0.14
AGCUAGCAAUAUUACGAGUA | -1.65 ± 0.15 | -0.618 ± 0.12
CUCCAGCAAUAUUACGAGUG | -2.45 ± 0.11 | -1.34 ± 0.11
GGUCAGCAAUAUUACGUAAA | 0.301 ± 0.14 | 0.672 ± 0.18
AUUUAGCAAUAUUACGUUAG | -3.03 ± 0.47 | -2.61 ± 0.25
UUGUAGCAAUAUUACGUUAC | – | -1.65 ± 0.43
CUGAAGCAAUAUUACGCAGU | -3.09 ± 0.19 | -3.23 ± 0.43

Sequence | self-splicing fitness (ln) (30 °C) | self-splicing fitness (ln) (37 °C)
UAGCAGCAAUAUUACGUAAC | -3.52 ± 0.19 | -2.42 ± 0.21
AGAAAGCAAUAUUACGGUAG | -3.84 ± 0.22 | -2.37 ± 0.21
UAACAGCAAUAUUACGAUGA | -1.01 ± 0.078 | -0.269 ± 0.088
GUAAAGCAAUAUUACGACGA | 0.208 ± 0.073 | 1.1 ± 0.1
AGGAAGCAAUAUUACGAUCG | -1.27 ± 0.16 | -0.489 ± 0.16
GUUCAGCAAUAUUACGGUGG | -2.39 ± 0.18 | -1.96 ± 0.19
CCUAAGCAAUAUUACGGUCU | -3.89 ± 0.31 | -2.94 ± 0.34
AGUCAGCAAUAUUACGAUUC | -3.27 ± 0.14 | -1.05 ± 0.1
CUAGAGCAAUAUUACGCCUA | -2.2 ± 0.14 | -1.15 ± 0.12
GGUCAGCAAUAUUACGUCUU | 0.322 ± 0.078 | 0.402 ± 0.089
GGACAGCAAUAUUACGUAGU | -1.61 ± 0.059 | -1.15 ± 0.085
GCCCAGCAAUAUUACGAAUU | -2.18 ± 0.077 | -0.934 ± 0.094
UACCAGCAAUAUUACGGGUA | -3.45 ± 0.14 | -3.02 ± 0.15
UAGUAGCAAUAUUACGUAGU | -4.39 ± 0.42 | -0.839 ± 0.21
UUGAAGCAAUAUUACGCGAC | -2.19 ± 0.18 | -1.51 ± 0.29
GACGAGCAAUAUUACGAGUG | -4.04 ± 0.31 | -2.63 ± 0.19
CGGAAGCAAUAUUACGAGGU | -4.22 ± 0.39 | -2.42 ± 0.35
UAGAAGCAAUAUUACGCUCU | -2.53 ± 0.2 | -2.75 ± 0.32
AUGUAGCAAUAUUACGACCA | -0.549 ± 0.17 | -0.552 ± 0.17
ACCAAGCAAUAUUACGGUGC | -2.72 ± 0.14 | -2.12 ± 0.23
CCAGAGCAAUAUUACGAAUU | -4 ± 0.28 | -3.11 ± 0.43
GCUAAGCAAUAUUACGUAGC | -4.22 ± 0.26 | -2.16 ± 0.18
GUCCAGCAAUAUUACGCUCA | -0.307 ± 0.092 | -0.112 ± 0.11
GAGUAGCAAUAUUACGGUGU | -2.71 ± 0.11 | -2.35 ± 0.18
AUCCAGCAAUAUUACGGUUC | -4.5 ± 0.17 | -1.95 ± 0.17

Sequence | self-splicing fitness (ln) (30 °C) | self-splicing fitness (ln) (37 °C)
UUCGAGCAAUAUUACGCCAG | -2.94 ± 0.24 | -0.74 ± 0.21
AGAUAGCAAUAUUACGUAAA | -2.53 ± 0.17 | -1.74 ± 0.14
AGAUAGCAAUAUUACGUCAG | -2.66 ± 0.15 | -1.01 ± 0.13
AAACAGCAAUAUUACGUUGG | -3.61 ± 0.1 | -2.43 ± 0.11
CUCGAGCAAUAUUACGUGAU | -2.16 ± 0.14 | -0.542 ± 0.12
CUGCAGCAAUAUUACGAUUU | -4.06 ± 0.17 | -1.7 ± 0.14
CGGAAGCAAUAUUACGGCAU | -3.02 ± 0.34 | -1.55 ± 0.3
GAUAAGCAAUAUUACGCCUG | -0.902 ± 0.09 | 0.488 ± 0.13
ACCAAGCAAUAUUACGUGAG | -1.19 ± 0.07 | -0.649 ± 0.086
AGACAGCAAUAUUACGUCUG | -1.6 ± 0.076 | -0.662 ± 0.08
AACUAGCAAUAUUACGGAGG | -3.08 ± 0.2 | -1.99 ± 0.22
AAGAAGCAAUAUUACGUGGG | -2.71 ± 0.13 | -2.57 ± 0.14
AAGCAGCAAUAUUACGAGGG | -2.45 ± 0.14 | -2.28 ± 0.2
CGUCAGCAAUAUUACGGGGA | -2.96 ± 0.16 | -1.91 ± 0.14
AUCCAGCAAUAUUACGGUUA | -0.475 ± 0.05 | 0.0679 ± 0.054
UACCAGCAAUAUUACGCCCA | -0.817 ± 0.1 | -0.342 ± 0.14
UUACAGCAAUAUUACGACCC | -2.6 ± 0.32 | -2.14 ± 0.44
UCCAAGCAAUAUUACGUUUA | -3.15 ± 0.12 | -1.98 ± 0.11
UGUGAGCAAUAUUACGUUUA | -2.98 ± 0.32 | -3.17 ± 0.47
CGAAAGCAAUAUUACGCUCG | -3.71 ± 0.3 | -2.26 ± 0.22
CAUUAGCAAUAUUACGGAAU | -2.87 ± 0.29 | -2.61 ± 0.31
ACAUAGCAAUAUUACGGAGG | -3 ± 0.17 | -0.703 ± 0.15
GAAAAGCAAUAUUACGGCAG | -3.02 ± 0.25 | -1.96 ± 0.23
CACAAGCAAUAUUACGGCGA | -1.3 ± 0.092 | -0.406 ± 0.087
UUCUAGCAAUAUUACGCUUC | -2.8 ± 0.32 | -1.96 ± 0.22
